The labels stand for the following.
B1: Erbin (Homo sapiens), Q96RT1-2 (parent)
chain: MTTKRSLFVRLVPCRCLRGEEETVTTLDYSHCSLEQVPKEIFTFEKTLEELYLDANQIEELPKQLFNCQSLHKLSLPDNDLTTLPASIANLINLRELDVSKNGIQEFPENIKNCKVLTIVEASVNPISKLPDGFSQLLNLTQLYLNDAFLEFLPANFGRLTKLQILELRENQLKMLPKTMNRLTQLERLDLGSNEFTEVPEVLEQLSGLKEFWMDANRLTFIPGFIGSLKQLTYLDVSKNNIEMVEEGISTCENLQDLLLSSNSLQQLPETIGSLKNITTLKIDENQLMYLPDSIGGLISVEELDCSFNEVEALPSSIGQLTNLRTFAADHNYLQQLPPEIGSWKNITVLFLHSNKLETLPEEMGDMQKLKVINLSDNRLKNLPFSFTKLQQLTAMWLSDNQSKPLIPLQKETDSETQKMVLTNYMFPQQPRTEDVMFISDNESFNPSLWEEQRKQRAQVAFECDEDKDEREAPPREGNLKRYPTPYPDELKNMVKTVQTIVHRLKDEETNEDSGRDLKPHEDQQDINKDVGVKTSESTTTVKSKVDEREKYMIGNSVQKISEPEAEISPGSLPVTANMKASENLKHIVNHDDVFEESEELSSDEEMKMAEMRPPLIETSINQPKVVALSNNKKDDTKETDSLSDEVTHNSNQNNSNCSSPSRMSDSVSLNTDSSQDTSLCSPVKQTHIDINSKIRQEDENFNSLLQNGDILNSSTEEKFKAHDKKDFNLPEYDLNVEERLVLIEKSVDSTATADDTHKLDHINMNLNKLITNDTFQPEIMERSKTQDIVLGTSFLSINSKEETEHLENGNKYPNLESVNKVNGHSEETSQSPNRTEPHDSDCSVDLGISKSTEDLSPQKSGPVGSVVKSHSITNMEIGGLKIYDILSDNGPQQPSTTVKITSAVDGKNIVRSKSATLLYDQPLQVFTGSSSSSDLISGTKAIFKFDSNHNPEEPNIIRGPTSGPQSAPQIYGPPQYNIQYSSSAAVKDTLWHSKQNPQIDHASFPPQLLPRSESTENQSYAKHSANMNFSNHNNVRANTAYHLHQRLGPARHGEMWAISPNDRLIPAVTRSTIQRQSSVSSTASVNLGDPGSTRRAQIPEGDYLSYREFHSAGRTPPMMPGSQRPLSARTYSIDGPNASRPQSARPSINEIPERTMSVSDFNYSRTSPSKRPNARVGSEHSLLDPPGKSKVPRDWREQVLRHIEAKKLEKMPLSNGQMGQPLRPQANYSQIHHPPQASVARHPSREQLIDYLMLKVAHQPPYTQPHCSPRQGHELAKQEIRVRVEKDPELGFSISGGVGGRGNPFRPDDDGIFVTRVQPEGPASKLLQPGDKIIQANGYSFINIEHGQAVSLLKTFQNTVELIIVREVSS

The variants in the assay derive from B1. To be noted: with nod2_human NOD2, Q9HC29.
Chain of nod2_human NOD2, Q9HC29 (Q9HC29 whole entry): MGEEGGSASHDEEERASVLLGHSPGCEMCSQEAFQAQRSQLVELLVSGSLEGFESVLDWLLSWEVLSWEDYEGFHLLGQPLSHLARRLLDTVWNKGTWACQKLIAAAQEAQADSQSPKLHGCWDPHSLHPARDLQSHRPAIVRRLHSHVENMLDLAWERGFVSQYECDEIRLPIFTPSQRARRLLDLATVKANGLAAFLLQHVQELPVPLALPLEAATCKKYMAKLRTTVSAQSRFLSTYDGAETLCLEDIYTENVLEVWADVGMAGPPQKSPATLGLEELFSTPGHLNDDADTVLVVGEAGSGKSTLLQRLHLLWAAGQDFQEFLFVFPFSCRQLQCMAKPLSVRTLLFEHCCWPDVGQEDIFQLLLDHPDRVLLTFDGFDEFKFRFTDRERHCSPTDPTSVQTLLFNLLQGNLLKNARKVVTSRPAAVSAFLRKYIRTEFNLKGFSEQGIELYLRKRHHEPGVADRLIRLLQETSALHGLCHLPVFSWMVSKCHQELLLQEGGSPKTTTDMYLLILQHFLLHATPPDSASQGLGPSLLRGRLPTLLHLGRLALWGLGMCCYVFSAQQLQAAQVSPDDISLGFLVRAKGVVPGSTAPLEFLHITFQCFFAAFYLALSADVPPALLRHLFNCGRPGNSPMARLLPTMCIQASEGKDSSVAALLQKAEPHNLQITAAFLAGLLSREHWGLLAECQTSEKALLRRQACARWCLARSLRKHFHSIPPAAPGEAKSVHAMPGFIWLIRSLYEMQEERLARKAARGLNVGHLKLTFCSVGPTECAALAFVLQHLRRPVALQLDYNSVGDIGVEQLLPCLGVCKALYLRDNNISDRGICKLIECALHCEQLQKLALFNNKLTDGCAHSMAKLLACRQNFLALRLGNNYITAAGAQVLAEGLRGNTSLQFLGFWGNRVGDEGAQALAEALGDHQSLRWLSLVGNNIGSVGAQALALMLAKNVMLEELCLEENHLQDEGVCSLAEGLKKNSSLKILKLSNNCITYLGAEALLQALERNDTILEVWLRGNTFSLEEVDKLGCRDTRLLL
Turning to P315L, the “effect of a mutation on the interaction” value is recorded as “decreasing interaction”.

For the origin of these results see IntAct's records for PubMed 16203728.
